# From the DeepSol protein solubility set
# Assay: soluble on expression in E. coli; label from the status in PepcDB or PDB records
row,Sequence,soluble on expression in E. coli
1,HQQLNSLPTMEGPPTFNPPVPYFGRLQGGLTARRTIIIKGYVPPTGKSFAINFKVGSSGDIALHINPRMGNGTVVRNSLLNGSWGSEEKKITHNPFGPGQFFDLSIRCGLDRFKVYANGQHLFDFAHRLSAFQRVDTLEIQGDVTLSYVQI,soluble
2,MSKPIQMERGVKYRDADKMALIPIKNMPTEQKEVLRKPEWMKIKLPADSQRIQDIKAAMRKNNLHSVCEEASCPNLAECFNHGTATFMILGAICTRRCPFCDVAHGRPNAPEAEEPKKLAQTIHDMKLKYVVITSVDRDDLRDGGAQHFADCNREIRALNPHIKIETLVPDFRGRMEVALEALKDNPPDVFNHNLETAPRLYRKVRPGANYKWSLELLRQFKEQHPHVPTKSGLMMGLGETKEEIVEVLKDLRAHGVTMLTLGQYLAPSRHHLPVERYVPPAEFDELKEVALELGFTHAACGPFVRSSYHADLQAKGLEVK,not soluble
3,MSLRITGERIYLRPFQIIDANQKLAFHLANKAFFEGYSMERDDRFYTIEEQQSLISRLEDFAASDVEYYYGIFLNDTDELIGTINLFSILRESLQSAFIGYFLDKKHNGNGYATEAVQLIVDFGFDILGLHRIEAGVMPKNERSKQVLLKAGFHLEGLAVQNVRINGTWEDHQVLAIINPGDEGHHHHHH,soluble
4,KIGFKLGGGFEYAFDNTWSLQPSLFLSTKGAKKDGNSINAMYLELPVMAAARFNVADNTNIVVNAGPYLACGIAGKTKIDLGNDTERKYDTFGDDALKRFDAGLGVGVALELGKVIVGLDGQFGLVDVEKIGNPKNTNFSIVLGYKF,not soluble
5,MDFSNRLLLLLEVTELGSFTNVAEQKNLDRSVISKQISRLEEELGVRLLNRTTRSLSLTAAGNEMVNQAKLLRDLLNNTHRLAQNYHSEPRGILRITSSMMFGRQYVQDAISVFQKQYPDVKCELRLEDRVVDIVQEGFDIGFRIGRPKNSSLISRKIARSRLLIVASPDFIQQHGKIETIEKLESLPATIYAAPGLFIDKFTYLDENKVEQQFHLNVAYKVNDVEMVVKSAVAGNTLAVVTAQMIENEIIEGKLIPIMTHLNLEDFGTFFAVYPHRDAPIKTKLFIDVLKSIIGEDSPMWEKNIPDFAKLYGGTK,not soluble
6,MSLAGVGGRPPPSVGSVVVADTTMFTDAKLREVLGARSLEEAARIMARILARASRMGLTVYITPSVRAEIERFMLGNGVHPTTIARLMAWVRVKPPTTHELRLPAAMFRRYVETVRARLDKGLRVAEDHVRRALRSRDEEGDIVRSLREKYREYTRKGMLDSVEDVDTLLLALELGAAIVTSDEGLRRAAEDLGLTVLTPVELLEYILALEEEVKSVEEEGHHHHHH,not soluble
7,MGHHHHHHSHMQHFKRTGTGTPVKRVRKAIEKSETTSEHTCQLCGGWFDTKIGLSNHVRGHLKRLGKTKWDAHKSPICVLNEMMQNEEKYEKILKALNSRRIIPRPFVAQKLASSDDFISQNVIPLEAYRNGLKTEALSVSASEEEGLNFLNEYDETKPELPSGKKNQSLTLIELLKNKRMGEERNSAISPQKIHNQTARKRFVQKCVLPLNEDSPLMYQPQKMDLTMHSALDCKQKKSRSRSGSKKKMLTLPHGADEVYILRCRFCGLVFRGPLSVQEDWIKHLQRHIVNANLPRTGAGMVEVTSLLKKPASITETSFSLLMAEAAS,not soluble
8,MGSDKIHHHHHHMRESPLILPFDPAGIALDRSRGLSQQLYQALRARVLDGRLSSGTRLPATRDLAAMLALSRNSVVRAYDQLYAEGFIESRVGDGTYVSRLPKLSTQVSTGLSLGLSTGLSTFRQENTEDLSSGRHISAPLQRLKNNHLPPPRSGLPRAFRVGIPAFDLFPFDVWAKLQAGFWRNPSPAQLGYGDPAGEPALRDLIAAYLRRSRGLSCTAEQIVITSGAQQAISLCAQLLLQPGDGVAVENPGYRAAAHAFTLAGGRVCGVPVDEDGLDCGRLEQLTDCRLTYVTPAHQYPTGVTMSLARRLALLAWAERSDGWIIEDDYDGEYRYSGAPLAPLAALDRHGRVLYVGTFGKIAFPALRLGYLVLPSKLVQAFSQGRAIAVRHSEVSSQCVMAEFMARGHFQRHIRRMRKAALKRRDVLKAGWPVDIPGLGAMPEVAAGLHVKVNVDNFAREQELVAKAEAVEVEVTPLSNFWLADCEVPVDKRAGLVLGFAAVPEGEIAEALMKLRKVWRK,not soluble
9,MGSDKIHHHHHHMTREKSSYAVQTVEKALDILETLTDESRHATLPYLAEKLDLSRNKAFRLLATLESKGLVERDETSGVYRLGISSVELAQRLLNSTSLIRHAHPIMERLARKHDEAVYIAVLKGDEVLFLDMVDCEQAIKTAPLVGRRFPFFSNAAGKAIRALESTDLLDRFLKKRGRNGGPFDPAALQQELKAVREHGVAVDFDGLGEGIVSVAVAVRDYAGKVIGALTMLGPSFRMMASRMENEIIPSLREGAEILSMKFGYAKL,not soluble
10,PHMSGLKKFFPYSTNVLKGAAADIALPSLAGKTVFFYFSASWCPPCRAFTPQLIDFYKAHAESKNFEVMLISWDESAEDFKDYYAKMPWLALPFEDRKGMEFLTTGFDVKSIPTLVGVEADSGNIITTQARTMVVKDPEAKDFPWPNVEAKK,soluble
11,MAHHHHHHMATASPSLSSNCFIDAATYFESRRGRRTFPERNASQILLGDASANSPIEEEEGLVRRQAQASAPVAWQQQQQQRHQQMRPTRRPRGPGIAFAARIEASGFPAAASRRSACADVVPECLYQYDTSELRTHKRPAQMPNRVKQCDRNLQLFLRPEEQVVRSAAAAVMLGESRDGQLSYSRYPSSQAHEHSKDPRMTADAIEASSSPFSDSAPHDQAMMTDRRSCLPYAPAAELDDSLLLKESLSSDRLRLLEHLYQRERSRLRGASRSVERDVGAVAEEDARAWHGQAPVSSLPWGTTVLPFRHGDSADVAANLPSLRRRAERSSVRRDDGDGAVHAHPLQGRDWQPWERKYACEAHPVTPRTRSSFHASSQIADSNERSDNDNDRNGGVDYTHAKSFGNATCSANWRCASASHRRRVTGSYDDFSDSTEARNEPPKHTTRIGSRMAMADAAPRVPHISAWFAPLRNDRVARQAHHTRSADHARASHSLRGEKERQAGQLQRHISAASPSVQGSSSSTAAGARPVETSPAASARTQATVTLSDVCTHQPLRAPSLQQRQHGKLAGSAASSPLFPTSSARVQGRDDAALTLRDVCGALNTAAVVM,not soluble
12,MGSDKIHHHHHHMKKIRLGIYIEDSEYGDRLTCYFMNHYKVQLEIHMYTMKEQLEHLEGEIDIMLSSELDQWNNKYIPLIQIVEETPIESEEGIYFVEKYQEVNRIVEEILKHVGGEVRDLKSEGSLIGQTRLISVYSLADNQYQMPFAMTLSSILSENEKVLLMDFQENSGLSRMLEQSVEHNLDELLVMAESGRYSTNRINSCIGRKHKLDYVYPIENTECLCEINTVICNNLLQMLGKEMHYDCIVLNMGTRFKGFFDILDRCSDIYLVQKKGGISQWREYEFTEELMERGLSNVVERIKLIEPPVITTPVSTCDKLVELWKWNEFGDVIRNMTRGISCAG,not soluble
13,EKLTLAEKVWRDHVVSKGENGEPDLLYIDLQLLHEVTSPQAFDGLRMTGRKLRHPELHLATEDHNVPTEGIKTGSLLEINDKISRLQVSTLRDNCEEFGVRLHPMGDVRQGIVHTVGPQLGATQPGMTIVCGDSHTSTHGAFGSMAFGIGTSEVEHVMATQTLPLKPFKT,not soluble
14,MTIETIKRIIEEENVRFIRLQFTDINGTLKNLEITPDVFLESWEDGIMFDGSSIEGFVRIEESDMYLKPVLDTFAVLPWTVDGAKSARVICDVYTPDGKPFEGDPRYRLRRMMEKAEQLGYTPYAGPEMEFFILPINEKGEPVPEFLDHGGYFDLLPLSKVEEIRRDIAIALEKMGITVEATHHEVAPSQHEVDFRYDTFLRTADNAQTVKLVIKTMAIFHGYHATFMPKPFYGVNGSGMHVHMSLFRGDKNAFYDPDDPLGLSKELRYFVGGILKHAKALAAVTNPTINSYKRLVPGYEAPVYISWSVGNRSALIRIPKARGKATRLEYRSPDPSCNIYLAFAAILAAGLDGIINKIEPPAPVEENIYHMTSERREELNIESLPGSLKEAVEELKKDDVIIDALGEHIFEKFVEAAEKDWKEFSTYVTNWELQRYLYL,soluble
15,MSLSTIDLHVHSNYSDGIHPPADLVKMAAERGLVAIAIADHDTVDGIDEALIAGARLGVEVVPAVELSAEHGRYRDMHILGYHLDHRDPRLVDMLAEFRINREIRGRAIVDKINQRLADGRKPLLSYDEVLNLAEGAVGRPHIGRMLIERGYARNMEDAFRRYLIPCNVPKRYIPAGDAITEIRRAGGVAVLAHPITVSDDRQVLRGIVSELVALGLDGIEVFNNMCYKDDMLFLEFLCRESGLLMTGGSDFHGFEDDVEIGSGRGGLAVSHRLAEAVKNLAESRRITPPGSRTEGHHHHHH,soluble
16,MGSDKIHHHHHHMAVILFDIDGTLIDSTDQMTEAIHLAMEDMPHLVKPSKASVQSSYGLAGNAFWRKAIPDASENDIKEIRRKRHHHLEQTMQNQDVLFDGIRELLEQLTNQGHIVSTASNCGVHYLNLVLDSQNIRSYFTSPKCLESVNGKQKADILAAHREEFSEVDYLMVGDRSSDVEAARLQNMPVAICCFGFGTEQEWKTADHQLETPLDLLKFV,not soluble
17,MHSEKSVMMEPMTNPKNDPRNPDLLLDFEEVEFTRGGKTLVGPITWQVELDERWVILGPNGAGKTTLIRMAAAEEFPSKGALWIMGERIGKTDMRDLRAMIGVSSSALGNRIPTNEKVLDLVISAGYAILGRWREEYDKWDHDRAIEILEQVGAYHLADQTWGTLSEGERKRVLVARALMTNPELLLLDEPTAGMDLGGREDLVGYLAQLAMDPDAPAMVMITHHVEEIPAGFTHALLLDEGEVVSQGLIDEVLTSANLTKAFHQPIKVDKIDGRYFARRQRTARSHRR,not soluble
18,MAAKKRGLGRGLDALLGGSSPAKLQEEAVQADRRELQQIPLDLMQRGKYQPRRDMDPQALEELAQSIKAQGVMQPIVVRPIANGRYEIIAGERRWRASQQAGLEKIPALVRDVPDEAAIAMALIENIQREDLNPIEEAAALQRLQQEFQLTQQQVAEAVGKSRATITNLLRLIGLPEEIKTLLSHGDLEMGHARALLGLPAERQVEGARHVVAHGLTVRQTEALVRQWTHAPGKPAGPVKSDPDIARLEQRLAERLGASVQIRHGQKGKGQLVIRYSSLDELQGVLAHIR,not soluble
19,MSLSPEHKRTALVTGANSGLGKAIVTALAADGLRVGLVARDRGRGEAALADVRAATGNQDLHLFVADLADQESIRALAQDVRARFDRLHLLINNAGTAFPERRLSPQGIERAFAINHLGPFLLTNLLLDLIKASAPARIVNVGTRIDAAIDFDDLNWDKRPYGMMKGYAQSKLGNLHFTFELARRLEGSGVTVNCVFPGVFKSNLGGTDGAQGLFWKLLAKLGGWAIPKPESAAQRVLYLANAPELESVSGQYYANRKTIPAPAQALDAEANRRLWEISERMTGLTQSQTVGDQAATEGHHHHHH,soluble
20,MSDKLPYKVADIGLAAWGRKALDIAENEMPGLMRMRERYSASKPLKGARIAGCLHMTVETAVLIETLVTLGAEVQWSSCNIFSTQNHAAAAIAKAGIPVYAWKGETDEEYLWCIEQTLYFKDGPLNMILDDGGDLTNLIHTKYPQLLPGIRGISEETTTGVHNLYKMMANGILKVPAINVNDSVTKSKFDNLYGCRESLIDGIKRATDVMIAGKVAVVAGYGDVGKGCAQALRGFGARVIITEIDPINALQAAMEGYEVTTMDEACQEGNIFVTTTGCIDIILGRHFEQMKDDAIVCNIGHFDVEIDVKWLNENAVEKVNIKPQVDRYRLKNGRRIILLAEGRLVNLGCAMGHPSFVMSNSFTNQVMAQIELWTHPDKYPVGVHFLPKKLDEAVAEAHLGKLNVKLTKLTEKQAQYLGMSCDGPFKPDHYRY,soluble
